Measured values: US20150344570A1 (published 2015)

T1: FcγRIIa H (human, UniProt P12318 34-217)
T1 construct: extracellular domain; also called FcgRIIa H; 2aH; not shown: His tag at the C terminus
T1 sequence (looked up): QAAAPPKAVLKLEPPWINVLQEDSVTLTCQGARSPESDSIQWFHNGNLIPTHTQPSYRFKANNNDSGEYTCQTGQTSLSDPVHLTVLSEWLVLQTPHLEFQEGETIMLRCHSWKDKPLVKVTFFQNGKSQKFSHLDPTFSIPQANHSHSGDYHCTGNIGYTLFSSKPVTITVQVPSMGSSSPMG

T2: FcγRIIb (human, UniProt P31994 43-217)
T2 construct: extracellular domain; also called FcgRIIb; 2b; not shown: His tag at the C terminus
T2 sequence (looked up): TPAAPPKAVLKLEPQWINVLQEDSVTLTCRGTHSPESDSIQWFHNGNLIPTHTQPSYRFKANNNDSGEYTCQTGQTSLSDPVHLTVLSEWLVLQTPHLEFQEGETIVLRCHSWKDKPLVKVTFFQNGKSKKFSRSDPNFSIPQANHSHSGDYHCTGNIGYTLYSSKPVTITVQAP


What was measured:
FcγRIIa H [1] = target: T1, FcγRIIa H; experiment: SPR (Biacore); He/Con_2aH divided by He/Con_2b (FcγRIIa H versus FcγRIIb)
Protocol: (§1) The heterodimerized antibodies He Abs in which one of the H chains was introduced with an alteration were assayed for their binding activities to each activating FcγR and inhibitory FcγR according to the method described in Example 4. […] The activating FcγRs in FIGS. 26, 27, 28, and 29 are FcγRIa, FcγRIIa (R), FcγRIIa (H), and FcγRIIIa, respectively.
(§2) Analysis of interaction between objective antibody and the FcγR was carried out using Biacore T100 (GE Healthcare). HBS-EP+ (GE Healthcare) was used as the running buffer, and the measurement temperature was set to 25° C. Chips produced by immobilizing the antigen peptide by the amine coupling method to a Series S Sencor Chip CM5 (GE Healthcare), or alternatively, chips produced by allowing preliminarily biotinylated antigen peptides to interact with and immobilize onto a Series S Sensor Chip SA (certified) (GE Healthcare) were used. Antibodies of interest were captured onto an antigen peptide-immobilized chip, and allowed to interact to each FcγR diluted with running buffer. To regenerate and repeatedly use the chip, the antibodies captured on the chip were washed off by reacting 10 mM glycine-HCl, pH 1.5.

FcγRIIb = target: T2, FcγRIIb; experiment: SPR (Biacore), FcγR passed over captured antibody; binding amount as % of control GpH7-A5/GpH7-B3/GpL16-k0 (=100)
Protocol: as §1, §2

FcγRIIa H [2] = target: T1, FcγRIIa H; experiment: as above
Protocol: as §1, §2

Row | Binder | He_2aH/2b (IIaH/IIb) (FcγRIIa H [1]) | He/Con_2b (FcγRIIb) | He/Con_2aH (FcγRIIa H [2])
1 | GpH7-A5/GpH7-B3 variant A327_06M/GpL16-k0 (antibody, human IgG1, kappa, He Ab: mutation in the GpH7-B3 H chain only) heavy 1: not shown heavy 2: not shown light: DIVMTQSPLSLPVTPGEPASISCQASESLVHSNRNTYLHWYLQKPGQSPQLLIYKVSNRFSGVPDRFSGSGSGTDFTLKISRVEAEDVGVYYCSQNTHVPPTFGQGTKVEIERTVAAPSVFIFPPSDEQLKSGTASVVCLLNNFYPREAKVQWKVDNALQSGNSQESVTEQDSKDSTYSLSSTLTLSKADYEKHKVYACEVTHQGLSSPVTKSFNRGEC | 1.27 ratio | 59.5 relative, control = 100 | 75.5 relative, control = 100
2 | GpH7-A5/GpH7-B3 variant A330_07I/GpL16-k0 (antibody, human IgG1, kappa, He Ab: mutation in the GpH7-B3 H chain only) heavy 1: not shown heavy 2: not shown light: DIVMTQSPLSLPVTPGEPASISCQASESLVHSNRNTYLHWYLQKPGQSPQLLIYKVSNRFSGVPDRFSGSGSGTDFTLKISRVEAEDVGVYYCSQNTHVPPTFGQGTKVEIERTVAAPSVFIFPPSDEQLKSGTASVVCLLNNFYPREAKVQWKVDNALQSGNSQESVTEQDSKDSTYSLSSTLTLSKADYEKHKVYACEVTHQGLSSPVTKSFNRGEC | 1.3 ratio | 67.1 relative, control = 100 | 87.3 relative, control = 100
3 | GpH7-A5/GpH7-B3 variant A330_12R/GpL16-k0 (antibody, human IgG1, kappa, He Ab: mutation in the GpH7-B3 H chain only) heavy 1: not shown heavy 2: not shown light: DIVMTQSPLSLPVTPGEPASISCQASESLVHSNRNTYLHWYLQKPGQSPQLLIYKVSNRFSGVPDRFSGSGSGTDFTLKISRVEAEDVGVYYCSQNTHVPPTFGQGTKVEIERTVAAPSVFIFPPSDEQLKSGTASVVCLLNNFYPREAKVQWKVDNALQSGNSQESVTEQDSKDSTYSLSSTLTLSKADYEKHKVYACEVTHQGLSSPVTKSFNRGEC | 1.27 ratio | 84.8 relative, control = 100 | 108 relative, control = 100
4 | GpH7-A5/GpH7-B3 variant A330_08L/GpL16-k0 (antibody, human IgG1, kappa, He Ab: A330L (EU numbering) in the GpH7-B3 H chain only; also called GpH7-A5/GpH7-B3-20-08L/GpL16-k0) heavy 1: not shown heavy 2: not shown light: DIVMTQSPLSLPVTPGEPASISCQASESLVHSNRNTYLHWYLQKPGQSPQLLIYKVSNRFSGVPDRFSGSGSGTDFTLKISRVEAEDVGVYYCSQNTHVPPTFGQGTKVEIERTVAAPSVFIFPPSDEQLKSGTASVVCLLNNFYPREAKVQWKVDNALQSGNSQESVTEQDSKDSTYSLSSTLTLSKADYEKHKVYACEVTHQGLSSPVTKSFNRGEC | 1.24 ratio | 70.5 relative, control = 100 | 87.6 relative, control = 100
5 | GpH7-A5/GpH7-B3 variant A327_19Q/GpL16-k0 (antibody, human IgG1, kappa, He Ab: mutation in the GpH7-B3 H chain only) heavy 1: not shown heavy 2: not shown light: DIVMTQSPLSLPVTPGEPASISCQASESLVHSNRNTYLHWYLQKPGQSPQLLIYKVSNRFSGVPDRFSGSGSGTDFTLKISRVEAEDVGVYYCSQNTHVPPTFGQGTKVEIERTVAAPSVFIFPPSDEQLKSGTASVVCLLNNFYPREAKVQWKVDNALQSGNSQESVTEQDSKDSTYSLSSTLTLSKADYEKHKVYACEVTHQGLSSPVTKSFNRGEC | 1.24 ratio | 54.2 relative, control = 100 | 67.3 relative, control = 100
6 | GpH7-A5/GpH7-B3 variant A330_14T/GpL16-k0 (antibody, human IgG1, kappa, He Ab: mutation in the GpH7-B3 H chain only) heavy 1: not shown heavy 2: not shown light: DIVMTQSPLSLPVTPGEPASISCQASESLVHSNRNTYLHWYLQKPGQSPQLLIYKVSNRFSGVPDRFSGSGSGTDFTLKISRVEAEDVGVYYCSQNTHVPPTFGQGTKVEIERTVAAPSVFIFPPSDEQLKSGTASVVCLLNNFYPREAKVQWKVDNALQSGNSQESVTEQDSKDSTYSLSSTLTLSKADYEKHKVYACEVTHQGLSSPVTKSFNRGEC | 1.21 ratio | 77.9 relative, control = 100 | 94.5 relative, control = 100
7 | GpH7-A5/GpH7-B3 variant A330_13S/GpL16-k0 (antibody, human IgG1, kappa, He Ab: mutation in the GpH7-B3 H chain only) heavy 1: not shown heavy 2: not shown light: DIVMTQSPLSLPVTPGEPASISCQASESLVHSNRNTYLHWYLQKPGQSPQLLIYKVSNRFSGVPDRFSGSGSGTDFTLKISRVEAEDVGVYYCSQNTHVPPTFGQGTKVEIERTVAAPSVFIFPPSDEQLKSGTASVVCLLNNFYPREAKVQWKVDNALQSGNSQESVTEQDSKDSTYSLSSTLTLSKADYEKHKVYACEVTHQGLSSPVTKSFNRGEC | 1.58 ratio | 41.3 relative, control = 100 | 65.4 relative, control = 100
8 | GpH7-A5/GpH7-B3 variant I332_12R/GpL16-k0 (antibody, human IgG1, kappa, He Ab: mutation in the GpH7-B3 H chain only) heavy 1: not shown heavy 2: not shown light: DIVMTQSPLSLPVTPGEPASISCQASESLVHSNRNTYLHWYLQKPGQSPQLLIYKVSNRFSGVPDRFSGSGSGTDFTLKISRVEAEDVGVYYCSQNTHVPPTFGQGTKVEIERTVAAPSVFIFPPSDEQLKSGTASVVCLLNNFYPREAKVQWKVDNALQSGNSQESVTEQDSKDSTYSLSSTLTLSKADYEKHKVYACEVTHQGLSSPVTKSFNRGEC | 1.8 ratio | 48.9 relative, control = 100 | 87.8 relative, control = 100
9 | GpH7-A5/GpH7-B3 variant E333_11K/GpL16-k0 (antibody, human IgG1, kappa, He Ab: mutation in the GpH7-B3 H chain only) heavy 1: not shown heavy 2: not shown light: DIVMTQSPLSLPVTPGEPASISCQASESLVHSNRNTYLHWYLQKPGQSPQLLIYKVSNRFSGVPDRFSGSGSGTDFTLKISRVEAEDVGVYYCSQNTHVPPTFGQGTKVEIERTVAAPSVFIFPPSDEQLKSGTASVVCLLNNFYPREAKVQWKVDNALQSGNSQESVTEQDSKDSTYSLSSTLTLSKADYEKHKVYACEVTHQGLSSPVTKSFNRGEC | 1.22 ratio | 80.6 relative, control = 100 | 98.1 relative, control = 100
10 | GpH7-A5/GpH7-B3 variant A330_03V/GpL16-k0 (antibody, human IgG1, kappa, He Ab: mutation in the GpH7-B3 H chain only) heavy 1: not shown heavy 2: not shown light: DIVMTQSPLSLPVTPGEPASISCQASESLVHSNRNTYLHWYLQKPGQSPQLLIYKVSNRFSGVPDRFSGSGSGTDFTLKISRVEAEDVGVYYCSQNTHVPPTFGQGTKVEIERTVAAPSVFIFPPSDEQLKSGTASVVCLLNNFYPREAKVQWKVDNALQSGNSQESVTEQDSKDSTYSLSSTLTLSKADYEKHKVYACEVTHQGLSSPVTKSFNRGEC | 1.52 ratio | 52.4 relative, control = 100 | 79.7 relative, control = 100
11 | GpH7-A5/GpH7-B3 variant I332_03V/GpL16-k0 (antibody, human IgG1, kappa, He Ab: mutation in the GpH7-B3 H chain only) heavy 1: not shown heavy 2: not shown light: DIVMTQSPLSLPVTPGEPASISCQASESLVHSNRNTYLHWYLQKPGQSPQLLIYKVSNRFSGVPDRFSGSGSGTDFTLKISRVEAEDVGVYYCSQNTHVPPTFGQGTKVEIERTVAAPSVFIFPPSDEQLKSGTASVVCLLNNFYPREAKVQWKVDNALQSGNSQESVTEQDSKDSTYSLSSTLTLSKADYEKHKVYACEVTHQGLSSPVTKSFNRGEC | 1.3 ratio | 80.7 relative, control = 100 | 105 relative, control = 100
12 | GpH7-A5/GpH7-B3 variant E333_01G/GpL16-k0 (antibody, human IgG1, kappa, He Ab: mutation in the GpH7-B3 H chain only) heavy 1: not shown heavy 2: not shown light: DIVMTQSPLSLPVTPGEPASISCQASESLVHSNRNTYLHWYLQKPGQSPQLLIYKVSNRFSGVPDRFSGSGSGTDFTLKISRVEAEDVGVYYCSQNTHVPPTFGQGTKVEIERTVAAPSVFIFPPSDEQLKSGTASVVCLLNNFYPREAKVQWKVDNALQSGNSQESVTEQDSKDSTYSLSSTLTLSKADYEKHKVYACEVTHQGLSSPVTKSFNRGEC | 1.2 ratio | 81.4 relative, control = 100 | 97.7 relative, control = 100
13 | GpH7-A5/GpH7-B3 variant A330_18N/GpL16-k0 (antibody, human IgG1, kappa, He Ab: mutation in the GpH7-B3 H chain only) heavy 1: not shown heavy 2: not shown light: DIVMTQSPLSLPVTPGEPASISCQASESLVHSNRNTYLHWYLQKPGQSPQLLIYKVSNRFSGVPDRFSGSGSGTDFTLKISRVEAEDVGVYYCSQNTHVPPTFGQGTKVEIERTVAAPSVFIFPPSDEQLKSGTASVVCLLNNFYPREAKVQWKVDNALQSGNSQESVTEQDSKDSTYSLSSTLTLSKADYEKHKVYACEVTHQGLSSPVTKSFNRGEC | 1.28 ratio | 63.7 relative, control = 100 | 81.6 relative, control = 100
14 | GpH7-A5/GpH7-B3 variant E333_18N/GpL16-k0 (antibody, human IgG1, kappa, He Ab: mutation in the GpH7-B3 H chain only) heavy 1: not shown heavy 2: not shown light: DIVMTQSPLSLPVTPGEPASISCQASESLVHSNRNTYLHWYLQKPGQSPQLLIYKVSNRFSGVPDRFSGSGSGTDFTLKISRVEAEDVGVYYCSQNTHVPPTFGQGTKVEIERTVAAPSVFIFPPSDEQLKSGTASVVCLLNNFYPREAKVQWKVDNALQSGNSQESVTEQDSKDSTYSLSSTLTLSKADYEKHKVYACEVTHQGLSSPVTKSFNRGEC | 1.26 ratio | 76.1 relative, control = 100 | 96.2 relative, control = 100
15 | GpH7-A5/GpH7-B3 variant I332_18N/GpL16-k0 (antibody, human IgG1, kappa, He Ab: mutation in the GpH7-B3 H chain only) heavy 1: not shown heavy 2: not shown light: DIVMTQSPLSLPVTPGEPASISCQASESLVHSNRNTYLHWYLQKPGQSPQLLIYKVSNRFSGVPDRFSGSGSGTDFTLKISRVEAEDVGVYYCSQNTHVPPTFGQGTKVEIERTVAAPSVFIFPPSDEQLKSGTASVVCLLNNFYPREAKVQWKVDNALQSGNSQESVTEQDSKDSTYSLSSTLTLSKADYEKHKVYACEVTHQGLSSPVTKSFNRGEC | 1.22 ratio | 89.9 relative, control = 100 | 110 relative, control = 100
16 | GpH7-A5/GpH7-B3 variant E333_13S/GpL16-k0 (antibody, human IgG1, kappa, He Ab: mutation in the GpH7-B3 H chain only) heavy 1: not shown heavy 2: not shown light: DIVMTQSPLSLPVTPGEPASISCQASESLVHSNRNTYLHWYLQKPGQSPQLLIYKVSNRFSGVPDRFSGSGSGTDFTLKISRVEAEDVGVYYCSQNTHVPPTFGQGTKVEIERTVAAPSVFIFPPSDEQLKSGTASVVCLLNNFYPREAKVQWKVDNALQSGNSQESVTEQDSKDSTYSLSSTLTLSKADYEKHKVYACEVTHQGLSSPVTKSFNRGEC | 1.23 ratio | 81.8 relative, control = 100 | 101 relative, control = 100
